For test [1], the target named is FGF2 (UniProt P09038). The note with it: cited from earlier work.
Test [2] deals with FGF2 (UniProt P09038). Nature of the test: SPR; BIAcore 3000; […] (31.25–[…]), HBS-EP buffer; 1:1 Langmuir fit.
The target in test [3] is FGF9 (UniProt P31371). Described as above.
The target in test [4] is FGF2 (UniProt P09038). The description is as above. The source holds these as a separate data set.
The target in test [5] is FGF9 (UniProt P31371). The test is described as above. This is another data set of the same source.

pKd: −log10 of the molar value. Where two headings read alike, the source gives them in different places.

One may read the pKd as the negative decadic logarithm of the Kd, by convention in mol/L. With FGFR2b Loop 2,3 (from UniProt P21802), the pKd in test [1] is 7.89.
In general, koff refers to the first-order rate constant of dissociation. Broadly, the kon is a measure of how fast the partners come together. Read a low kon as slow association. Take FGFR3b Loop 2,3 (domain or fragment): the pKd in test [2] was 7.91; in test [3], 7.51; in test [4], 7.87; in test [5], 7.52. For the same substance, the koff in test [2] amounted to 0.000159 s⁻¹; in test [3] it was 9.25e-05 s⁻¹; in test [4], 6.69e-05 s⁻¹; in test [5] it was 6.53e-05 s⁻¹. In addition, the kon turned out to be 16500 M⁻¹ s⁻¹ in test [2], 2920 M⁻¹ s⁻¹ in test [3], 4980 M⁻¹ s⁻¹ in test [4] and 2190 M⁻¹ s⁻¹ in test [5].

The values above are taken from publication PMC3656097.
